Patent US20080124811A1 (AbbVie / Abbott, published 2008)

Key:
[1] = target: T1, human brain natriuretic peptide, cyclic BNP (1-32c) (human, cyclic: ring closed by a disulfide bond between the two cysteine residues; biotinylated or acridinium-labelled in some assays); test: yeast display off-rate assay, flow cytometry; t1/2 = ln 2/koff
T1 construct: also called hBNP; hBNP 1-32

[2] = target: T1, human brain natriuretic peptide, cyclic …; test: scFv on yeast; method not described; printed unit µM read as pM (26 pM is said to be 10-fold lower)
[3] = target: T1, human brain natriuretic peptide, cyclic …; test: yeast display off-rate assay, flow cytometry, biotinylated cyclic BNP chased with unlabelled BNP, first order decay fit
[4] = target: T1, human brain natriuretic peptide, cyclic …; test: off-rate assay on yeast-displayed scFv by flow cytometry: biotinylated cyclic BNP (1-32c), chase with unlabelled BNP 1-32c, SA:PE, first order decay fit
[5] = target: T1, human brain natriuretic peptide, cyclic …; test: off-rate assay on yeast-displayed scFv by flow cytometry: biotinylated cyclic BNP (1-32c), chase with unlabelled BNP 1-32c, SA:PE; m2 of the first order decay fit (error 0.00087362, R 0.98912), time axis in sec

B1: 3-631-436 scFv, unmutated, on yeast (scFv)
scFv: QVQLQQPGAELVRPGASVKLSCKASGYTFTSYWMNWVKQRPEQGLEWIGRIDPYDSETHYNQKFKDKAILTVDKSSSTAFVQLTSLTSEDSAVYYCVSDGYWGAGTTVTVSSGPAKELTPLKEAKVSDVVMTQTPLTLSVTTGQPASISCKSSQSLLDSDGKTYLNWLFQRPGESPKLLIYVVSKLESGVPDRFTGSGSGTDFTLKISRVEAEDLGVYYCLQATHFPWTFGGGTKLEIKRAAALESRGPFEGKPIPNPLLGLDSTRTGHHHHHH
[1]
  half-life (t1/2): 2.4 min
[2]
  Kd: ~0.26 nM
[3]
  koff: 0.0047 s⁻¹
[4]
  koff: 0.0048 s⁻¹
[5]
  koff: 0.00474 s⁻¹
